Where no end group is shown, it is not given here.

Assay [1] deals with T1, Mono-ubiquitin (Sigma Aldrich) (UniProt P0CG48 1-76). As to the kind of experiment: SPR (BiaCore 3000), captured via GST on anti-GST chip, mono-ubiquitin injected, steady state.
Excerpt: (§1) (FIG. 4C) Mono-ubiquitin interaction with single and tandem UBA domains from hHR23A and ubiquilin1 was monitored by real-time surface plasmon resonance (SPR).
All injections were done as randomized duplicates, and each experiment was repeated in triplicate. All the experimental profiles were double referenced using the Scrubber 2.0 software (BioLogic Software), i.e. both the signals from a His6-GST-SV5 reference surface and from blank experiments (running buffer instead of protein) were subtracted. The steady-state responses (Req) were estimated by averaging the signal monitored during the last 15 seconds of each injection. The Req values were plotted against the concentration (C) of mono or tetra-ubiquitin and fitted using the following equation:
The target of assay [2] is T1, Mono-ubiquitin (Sigma Aldrich). As to the kind of experiment: SPR (Biacore), GST fusion captured on anti-GST antibody chip (150-220 RU), mono-ubiquitin injected in a 2-fold dilution series, steady-state fit.
Description: as §1
To measure real-time interactions, all experiments were performed with a BiaCore 3000 instrument, at 25° C., using HBS EP (0.01 B M HEPES pH 7.4, 0.15 M NaCl, 3 mM EDTA, 0.005% surfactant P20) (BiaCore) as running buffer. Anti GST antibody (BiaCore) was covalently immobilized on a CM5 chip (carboxy methylated dextran) from BiaCore with a density of approximately 9000 resonance units (RU≈pg·mm-2), using standard amino-coupling techniques and reagents (NHS, EDC, ethanolamine) from BiaCore. Purified GST-tagged polypeptide comprising ubiquitin binding domains of p62 protein and GST were diluted in running buffer and captured to similar levels in different flow cells. Single and tandem GST-fused UBA domains were captured on the sensor chip at low (30-55 RU) and high (130-220 RU) densities.
All injections were done as randomized duplicates, and each experiment was repeated in triplicate. […] The steady-state responses (Req) were estimated by averaging the signal monitored during the last 15 seconds of each injection.

B1: Ubiquilin1 UBA (single UBA domain, GST-fused) (other)
chain: VNPQLQNPEVRFQQQLEQLSAMGFLNREANLQALIATGGDINAAIERLLGSQPS
modifications: not fully specified (C-terminus); also: GST-fused, PreScission protease site and His6 tag, construct limits not given here
notes: not shown: glutathione-S-transferase (GST) encoded by the pGEX-6P1 vector (Amersham); PreScission protease site and His6 tag with vector linker residues
The Kd is a measure of binding affinity in units of concentration. Higher therefore signals a looser complex. In the case of B1, in assay [1], the “binding stoichiometry (molar ratio ubiquitin:UBA)” value was 1 ubiquitin per UBA. This molecule also returned a dissociation constant (Kd) in assay [2] of 41.3 µM.

Source of the values: US20090220470A1 (CENTRO DE INVESTIGACION COOPERATIVA EN BIOCIENCIAS CIC …, published 2009).
